Read-outs that look alike come from different tables or passages of the source. Where a SMILES comes first, the peptide text is derived from it. Bridges are numbered along the chain shown (N, C = ends). [ ]: non-standard residue; d: D form. The star is where a group is joined. DOTA = O=C(O)CN1CCN(CC(=O)O)CCN(CC(=O)*)CCN(CC(=O)O)CC1; dPhe(4-NHCONH2) = NC(=O)Nc1ccc(C[C@@H](N)C(=O)O)cc1; Dihydroorotyl(S) = O=C1C[C@@H](C(=O)*)NC(=O)N1; Phe(4-Cl) = N[C@@H](Cc1ccc(Cl)cc1)C(=O)O; Phe(4-NH2) = Nc1ccc(C[C@H](N)C(=O)O)cc1
How the values were obtained:
[1] = tested on: patients with progressive, SSTR-positive NETs; experiment: Blood-based bone marrow dosimetry (part A); assay type: in vivo, human; settings: cycles 1–3, 11 evaluated patients, median
Procedure: (§1) To generate pharmacokinetic data, blood samples (2 mL) were taken at the stop of infusion (0 min) and 5, 30, and 60 min, 4 h, and 1, 2, 3, and 6 days after the end of each [^177Lu]Lu-satoreotide tetraxetan administration. Urine samples were collected over three intervals within 48 h (0–6 h, 6–24 h, and 24–48 h in part A; 0–4 h, 4–24 h, and 24–48 h in part B) following the first treatment cycle of [^177Lu]Lu-satoreotide tetraxetan. Total activity concentrations in whole blood and urine were determined locally, using a gamma counter calibrated for lutetium-177. In two selected study centres, additional blood samples (2 mL) were collected at 1 min, 4 h, and 1, 2, 3, and 6 days after each [^177Lu]Lu-satoreotide tetraxetan administration to evaluate potential radioactive metabolites in plasma.
Patient-specific dosimetry calculations were performed after each treatment cycle in both parts A and B, using the absorbed dose calculation features of the NUKDOS software for image-based dosimetry calculations. The NUKDOS software was chosen as it allowed for an integral approach to organ dosimetry (including image quantification, time-activity curve-fitting and dosimetry calculation). For the bone marrow, both image-based and blood-based calculations were performed in part A [28, 29]. In part B, only image-based bone marrow dosimetry was performed. […]

[2] = tested on: patients with progressive, SSTR-positive NETs; experiment: Time-activity curves of whole body and organs (planar whole-body imaging, SPECT/CT); assay type: in vivo, human; settings: first treatment cycle, parts A and B; median
Procedure: In both parts A and B of the study, patients underwent planar whole-body imaging at 4 h and 1, 2, 3, and 6 days after each [^177Lu]Lu-satoreotide tetraxetan treatment cycle. Patients in part A also underwent single-photon emission computed tomography/computed tomography (SPECT/CT) at 24 h after each [^177Lu]Lu-satoreotide tetraxetan cycle. Those in part B underwent SPECT/CT, immediately before or after planar scintigraphy, at 4 h, and 1, 2, 3, and 6 days after each [^177Lu]Lu-satoreotide tetraxetan administration. Full details of the image acquisition methodology are provided in the Supplementary Information. Reconstruction parameters were set up to produce isotropic voxels of < 5 mm; voxels were continuous throughout the field of view. Anatomic coverage of the acquisition was determined according to the patients’ tumour locations on the planar whole-body scan acquisition with liver, both kidneys and spleen in the same bed position. […] VOIs for the same organs were drawn for all SPECT/CT images acquired in part B. All ROIs/VOIs were then used for activity quantification. […] Full details of the tumour delineation and activity quantification methodology are provided in the Supplementary Information.

[3] = Blood pharmacokinetics (total activity in whole blood, gamma counter); assay type: in vivo, human; settings: first treatment cycle
Procedure: as §1

[4] = Urinary excretion of radioactivity within 48 h (gamma counter); assay type: in vivo, human; settings: first treatment cycle; for dose excreted: human, urine, iv, total radioactivity, read-out: Cumulative urinary excretion within 48 h
Procedure: as §1

[5] = Radioactive metabolites in plasma; assay type: in vivo, human; settings: 1 min, 4 h, and 1, 2, 3, and 6 days after each administration, two study centres
Procedure: as §1

[6] = tested on: patients with progressive NETs; settings: cited from earlier work
Description: A novel radiolabelled SSTR antagonist, [^177Lu]Lu-satoreotide tetraxetan (also known as [^177Lu]^177Lu-SSO110, [^177Lu]^177Lu-IPN01072, [^177Lu]^177Lu-OPS201 or [^177Lu]^177Lu-DOTA-JR11), has recently shown a favourable pharmacokinetic and biodistribution profile, as ... || In the present study, we observed tumour ADCs of 5.0 Gy/GBq after cycle 1 and 4.0 Gy/GBq after cycle 3. These tumour ADCs are consistent with previously reported findings from a direct comparison of [^177Lu]Lu-satoreotide tetraxetan and [^177Lu]Lu-DOTA-TATE in the same tumours and patients in a cross-over design, which reported median tumour dose of [^177Lu]Lu-satoreotide tetraxetan of 7.0 Gy/GBq (range: 4.2–29 Gy/GBq), 3.5 times greater than the median tumour dose of [^177Lu]Lu-DOTA-TATE [22]. However, it should be noted that median tumour dose in this pilot study was calculated from a limi ...

[7] = on average, single mean activity 1.0 GBq vs 1.1 GBq, four patients

SMILES: C[C@@H](O)[C@@H]1NC(=O)[C@H](CCCCN)NC(=O)[C@@H](Cc2ccc(NC(N)=O)cc2)NC(=O)[C@H](Cc2ccc(NC(=O)[C@@H]3CC(=O)NC(=O)N3)cc2)NC(=O)[C@H](NC(=O)[C@H](Cc2ccc(Cl)cc2)NC(=O)CN2CCN(CC(=O)O)CCN(CC(=O)O)CCN(CC(=O)O)CC2)CSSC[C@@H](C(=O)N[C@H](Cc2ccc(O)cc2)C(N)=O)NC1=O [[^177Lu]Lu-satoreotide tetraxetan, metal not drawn] ({DOTA}-[Phe(4-Cl)][dC][Phe(4-NH2)](Dihydroorotyl(S))[dPhe(4-NHCONH2)]KTC[dY]-NH2; disulfide 2-7 (inferred); C-terminus assumed)
- Cumulative absorbed dose, bone marrow, blood-based method [1]: 0.3 Gy
- Whole body uptake at 6 days [2]: 11.5 % administered activity
- Extrapolated area under the concentration-time curve (AUC0–infinity), mean [3]: 742.0 ± 303.0 MBq.h/L
- Terminal blood half-life, mean ± SD ([3]; gamma counter): 110.0 ± 50.1 h
- Terminal blood half-life, median ([3]; gamma counter): 127 h
- Blood uptake at 1–5 minutes (peak) ([3]; median): 3.03 % administered activity/L
- Cumulative urinary excretion within 48 h ([4]; patients treated with 4.5 GBq): 57–66%
- Radioactivity excreted via urine within 48 hours ([4]; patients treated with 4.5 GBq, range of medians across groups): 2.6–3.0 GBq
- Radioactivity excreted via urine within 48 hours ([4]; patients treated with 6 GBq, median): 3.4 GBq
- dose excreted ([4]; patients treated with 4.5 GBq): 57 to 66%
- dose excreted ([4]; patients treated with 6 GBq): ~57%
- Radioactive metabolites in plasma samples [5]: No radioactive metabolites were observed
- Median tumour dose ([6]; cross-over design, 13 lesions in 4 patients): 7.0 Gy/GBq
- Tumour absorbed dose compared with [^177Lu]Lu-DOTA-TATE [6, 7]: three-fold higher
- Tumour-to-kidney absorbed dose ratio compared with [^177Lu]Lu-DOTA-TATE [6, 7]: two-fold higher
- Median tumour dose relative to [^177Lu]Lu-DOTA-TATE ([6]; same tumours and patients, cross-over): 3.5 times

— publication PMC11178655, “Dosimetry and pharmacokinetics of [^177Lu]Lu-satoreotide tetraxetan in patients with progressive neuroendocrine tumours” (European Journal of Nuclear Medicine and Molecular Imaging, 2024)
